The term pKa denotes the negative logarithm of the acid dissociation constant.

Common to all, as to assay: potentiometry
Data set [1] deals with His18 (position 18, ANFLVHS----).
The target in data set [2] is Lys1 (position 1, -----KCNTAT).
Data set [3] has as its target Nterm1 (position 1, -----KCNTAT).
The target in data set [4] is Tyr37 (position 37, VGSNTY-----).
Data set [5] deals with His18 (position 18, …).
The mark [6] stands for this setting: 298 K, 40 mM SDS (stated as the ionic strength), none (ligand 0.5 mM; electrode calibrated by titrating HClO4 with NaOH), metal-free peptide in SDS, helical-like structure by CD.
[7] abbreviates: not stated for the quoted titrations (the Figure 4 competition plot caption gives T = 298 K), metal-free peptide in water, cited from earlier work.
Where [8] appears, read: 298 K, 40 mM SDS (stated as the ionic strength), none (ligand 0.5 mM, Cu(II):ligand 0.9:1), Cu(II)-bound peptide (1:1 complex) in SDS, the titrating residue is not coordinated to the metal.

As to KCNTATCATQRLANFLVHS [Amylin(1-19), membrane-disrupting fragment of human amylin (IAPP) (Homo sapiens)], the pKa was 7.28 in data set [1] (setting [6]); 6.04 in data set [1] (setting [7]); 10.05 in data set [2] (setting [8]); 9.88 in data set [2] (setting [6]); 10.83 in data set [2] (setting [7]); 8.98 in data set [3] (setting [8]). Moreover, the pKa in data set [3] (setting [6]) was 8.18; in data set [3] (setting [7]), 7.97.

Take KCNTATCATQRLANFLVRSSNNLGPVLPPTNVGSNTY [Rat amylin (islet amyloid polypeptide, IAPP) (Rattus norvegicus)]: the pKa in data set [2] (setting [8]) is 10.04; in data set [2] (setting [6]), 10.44; in data set [2] (setting [7]), 10.20; in data set [3] (setting [6]), 7.85; in data set [3] (setting [7]) it was 7.13; in data set [4] (setting [8]), 9.61. In addition, the pKa in data set [4] (setting [6]) is 10.08; in data set [4] (setting [7]), 9.49.

KCNTATCATQRLANFLVHSSNNFGPILPPTNVGSNTY: the pKa is 6.76 in data set [5] (setting [6]); 5.79 in data set [5] (setting [7]); 10.89 in data set [2] (setting [8]); 10.92 in data set [2] (setting [6]); 10.32 in data set [2] (setting [7]); 8.39 in data set [3] (setting [6]). For the same protein, the pKa in data set [3] (setting [7]) is 7.53; in data set [4] (setting [8]) it was 10.28; in data set [4] (setting [6]), 9.93; in data set [4] (setting [7]), 9.67.

On to KCNTATCATQRLANFLVHSSNNFGPILPPTNVGSNTY [Ac-pramlintide (N-acetylated pramlintide) (Homo sapiens (synthetic analogue); A25P;S28P;S29P)], for which the pKa was found to be 7.57 in data set [5] (setting [6]), 10.50 in data set [2] (setting [6]) and 10.01 in data set [4] (setting [6]).

The values are drawn from PMC8748748.
